One test has as its target T1, human interleukin-2 (human, UniProt P60568 21-153).
T1 construct: Teceleukin is named only for the in vivo treatments; also called hIL-2; human IL-2
Put plainly: SPR, antibody amine-coupled to GLM chip, hIL-2 as analyte (100 nM, three-fold dilutions). The method, then:
For this experiment an amine coupling GLM chip was used. The activation of the carboxylic acid groups in the chip was done using a mix of 1-ethyl-3-3-dimethylaminopropyl carbodiimide hydrochloride (EDC at 0.2 M) and sulfo N-hydroxysulfosuccinimides (s_NHS at 0.05M) at 30 μl/min for 420 seconds (s). […] Deactivation was followed adding ethanolamine HCl at 30 μl/min for 300 s. Finally human IL-2 was added at different concentrations (starting from 100 nM and followed by three-fold dilutions) at 100 μl/min, 600 s association, and 240 s dissociation.
In order to characterize the binding properties of the anti-human IL-2 mAbs the binding to human interleukin-2 was tested with surface plasmon resonance binding assays.
In general terms: SPR reads the build-up and loss of mass on a sensor chip optically.

For the next test, the target named is T2, murine interleukin-2 (mouse, UniProt P04351 21-169).
T2 construct: also called mouse IL-2; mIL-2
T2 sequence (looked up): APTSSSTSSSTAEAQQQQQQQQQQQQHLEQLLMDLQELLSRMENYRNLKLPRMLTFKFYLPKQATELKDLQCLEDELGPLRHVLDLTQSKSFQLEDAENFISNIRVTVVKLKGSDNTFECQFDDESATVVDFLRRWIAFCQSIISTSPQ
Briefly: SPR, NARA1 amine-coupled to a GLM chip, mouse IL-2 injected at 10 to 0.041 nM.

In general, Kd refers to the free concentration of one partner at which half of the binding sites on the other are occupied at equilibrium, for simple one-to-one binding. Higher therefore signals weaker binding. As a reminder, the koff is the first-order rate constant of dissociation.

T1 sequence (P60568 21-153 limits assumed): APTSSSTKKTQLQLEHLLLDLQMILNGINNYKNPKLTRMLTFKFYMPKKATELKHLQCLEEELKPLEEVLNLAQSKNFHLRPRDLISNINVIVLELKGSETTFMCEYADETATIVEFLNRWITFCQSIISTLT

B1: monoclonal antibody NARA1 (antibody, mouse IgG2a, kappa, V domains shown)
VH: QVQLQQSGAELVRPGTSVKVSCKASGYAFTNYLIEWVKQRPGQGLEWIGVINPGSGGTNYNEKFKGKATLTADKSSSTAYMQLSSLTSDDSAVYFCARWRGDGYYAYFDVWGAGTTVTVSS
VL: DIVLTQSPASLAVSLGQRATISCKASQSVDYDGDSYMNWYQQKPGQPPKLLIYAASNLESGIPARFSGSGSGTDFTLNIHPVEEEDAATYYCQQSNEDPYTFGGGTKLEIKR
notes: also called hIL-2 mAb
In the test with human interleukin-2, B1 displayed a dissociation constant Kd of 1.2 nM and a koff of 2.08e-05 s⁻¹. The binding result with murine interleukin-2 was “no binding (tested: 10 nM)”.

The record behind these values is patent publication US20190016796A1 (UNIVERSITAT ZURICH, published 2019).
